Patent US20040146964

System: T1, C. elegans HIF-α homologue, wild type
T1 sequence: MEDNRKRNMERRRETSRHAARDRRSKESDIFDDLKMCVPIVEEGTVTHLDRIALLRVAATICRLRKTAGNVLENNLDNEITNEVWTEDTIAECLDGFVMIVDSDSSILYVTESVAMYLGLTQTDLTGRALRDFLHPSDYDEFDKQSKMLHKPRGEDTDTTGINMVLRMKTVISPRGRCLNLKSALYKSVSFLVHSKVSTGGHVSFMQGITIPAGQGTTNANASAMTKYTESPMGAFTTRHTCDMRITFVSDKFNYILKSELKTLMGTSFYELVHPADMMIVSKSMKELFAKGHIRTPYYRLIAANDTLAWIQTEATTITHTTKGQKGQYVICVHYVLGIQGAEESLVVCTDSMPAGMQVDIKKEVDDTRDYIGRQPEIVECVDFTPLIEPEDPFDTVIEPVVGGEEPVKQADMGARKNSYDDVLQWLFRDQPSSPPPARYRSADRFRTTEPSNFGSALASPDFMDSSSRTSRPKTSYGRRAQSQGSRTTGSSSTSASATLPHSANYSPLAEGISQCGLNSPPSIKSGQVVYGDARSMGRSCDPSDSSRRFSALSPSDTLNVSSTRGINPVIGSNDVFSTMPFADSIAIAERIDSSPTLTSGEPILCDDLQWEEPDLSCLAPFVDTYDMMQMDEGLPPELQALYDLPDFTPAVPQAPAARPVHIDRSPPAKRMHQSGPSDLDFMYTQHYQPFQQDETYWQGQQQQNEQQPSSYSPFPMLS

Substance: gene product of the predicted ORF T20B3.7
- modification of HIF-1 read by HA.VHL-1 capture: had no activity in these assays
